Assay [1] deals with CCR7 on T2 hybridoma cells. The experiment in a line: cell-based or functional assay.
In assay [2] the target is CP-MVP recombinant vaults (rat MVP generated in Sf9 cells) (rat) (UniProt Q62667). Kind of assay: densitometry of Coomassie stained SDS-PAGE gels of purified vault complexes.

Some results are limits rather than exact numbers.

Sequence of UniProt Q62667 (Q62667 2-861 limits assumed): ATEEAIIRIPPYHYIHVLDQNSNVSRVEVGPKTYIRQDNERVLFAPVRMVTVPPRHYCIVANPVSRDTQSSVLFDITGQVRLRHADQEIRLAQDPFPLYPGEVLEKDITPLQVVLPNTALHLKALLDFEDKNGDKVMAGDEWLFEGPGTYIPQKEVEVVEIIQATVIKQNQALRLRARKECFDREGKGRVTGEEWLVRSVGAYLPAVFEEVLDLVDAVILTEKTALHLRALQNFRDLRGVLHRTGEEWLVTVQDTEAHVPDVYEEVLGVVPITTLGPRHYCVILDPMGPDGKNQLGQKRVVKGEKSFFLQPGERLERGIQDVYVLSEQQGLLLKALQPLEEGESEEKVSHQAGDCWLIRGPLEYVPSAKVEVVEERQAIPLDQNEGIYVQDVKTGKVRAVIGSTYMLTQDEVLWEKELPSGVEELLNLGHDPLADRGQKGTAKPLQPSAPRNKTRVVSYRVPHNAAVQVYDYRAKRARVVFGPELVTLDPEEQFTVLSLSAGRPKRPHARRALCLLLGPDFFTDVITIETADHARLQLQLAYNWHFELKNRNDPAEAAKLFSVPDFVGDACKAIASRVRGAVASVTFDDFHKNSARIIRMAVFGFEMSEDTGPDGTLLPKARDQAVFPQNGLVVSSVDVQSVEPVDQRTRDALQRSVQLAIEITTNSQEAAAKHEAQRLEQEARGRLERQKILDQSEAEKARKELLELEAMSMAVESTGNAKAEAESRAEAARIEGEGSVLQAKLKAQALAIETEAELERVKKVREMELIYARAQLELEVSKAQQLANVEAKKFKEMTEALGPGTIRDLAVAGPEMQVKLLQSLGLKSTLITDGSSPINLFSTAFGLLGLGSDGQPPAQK
Sequence of CCL-21 vault complex (CP-MVP vaults with packaged mouse CCL-21-mCherry-mINT) (chain): as the sequence (Q62667 2-861 limits assumed) above
Sequence of CCL-21 vault complex (CP-MVP vaults with packaged mouse CCL-21-mCherry-mINT) (chain, part): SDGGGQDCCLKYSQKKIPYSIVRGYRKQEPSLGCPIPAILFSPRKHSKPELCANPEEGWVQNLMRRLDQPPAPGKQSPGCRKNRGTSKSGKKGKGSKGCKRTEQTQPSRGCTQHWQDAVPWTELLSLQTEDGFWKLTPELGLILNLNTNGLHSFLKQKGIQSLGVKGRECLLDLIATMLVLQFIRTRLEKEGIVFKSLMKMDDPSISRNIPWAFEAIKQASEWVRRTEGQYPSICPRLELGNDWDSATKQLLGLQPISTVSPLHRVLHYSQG

Consider “CCL-21 vault complex (CP-MVP vaults with packaged mouse CCL-21-mCherry-mINT)”, for which the % migration of T2 cells (dual-chamber chemotaxis assay) in assay [1] was above 7.5%.

With “mouse CCL-21-mCherry-mINT fusion protein”, in assay [2], the molecules of CCL-21-mINT protein per vault complex (molecules per vault complex) lay within 20 to 30.

Substance “recombinant CCL-21 (R&D Systems) (ligand)” returned a % migration of T2 cells (dual-chamber chemotaxis assay) in assay [1] below 2.5%.
